Experimental data reported in patent US20090136936A1.

The substances below were run against PA-FITC (PA antigen of Bacillus anthracis) (Bacillus anthracis) (UniProt P13423).
PA-FITC (PA antigen of Bacillus anthracis) (Bacillus anthracis), sequence (P13423 30-764 limits assumed): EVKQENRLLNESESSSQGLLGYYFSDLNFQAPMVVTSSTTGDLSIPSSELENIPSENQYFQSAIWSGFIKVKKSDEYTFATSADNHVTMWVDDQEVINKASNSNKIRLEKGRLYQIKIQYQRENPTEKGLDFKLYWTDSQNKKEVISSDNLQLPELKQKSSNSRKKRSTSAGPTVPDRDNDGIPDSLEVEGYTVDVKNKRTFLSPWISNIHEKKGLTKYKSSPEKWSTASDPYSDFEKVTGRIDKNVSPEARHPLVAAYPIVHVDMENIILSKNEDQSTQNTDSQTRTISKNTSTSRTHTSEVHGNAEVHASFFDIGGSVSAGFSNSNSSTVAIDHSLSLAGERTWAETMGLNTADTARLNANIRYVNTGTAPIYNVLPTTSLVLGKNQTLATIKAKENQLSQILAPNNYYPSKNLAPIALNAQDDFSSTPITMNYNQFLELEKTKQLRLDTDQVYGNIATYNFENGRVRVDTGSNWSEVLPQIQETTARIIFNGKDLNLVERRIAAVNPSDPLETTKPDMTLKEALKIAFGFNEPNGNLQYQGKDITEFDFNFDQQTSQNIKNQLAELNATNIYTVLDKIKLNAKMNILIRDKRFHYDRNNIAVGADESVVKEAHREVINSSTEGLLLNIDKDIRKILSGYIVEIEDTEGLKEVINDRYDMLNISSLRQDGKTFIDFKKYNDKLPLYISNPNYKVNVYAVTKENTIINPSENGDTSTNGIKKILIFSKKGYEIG

Substance	Mn (mean fluorescence intensity)
26-10 scFv (anti-digoxin)	8.49
M18 scFv (PelB fused, anti-PA)	10.3
PelB-2610scFv-Im2-FLAG	9.12
PelB-M18scFv-Im2-FLAG	249
